Results as given in the DeepSol protein solubility set.

experiment: soluble on expression in E. coli; label from the status in PepcDB or PDB records

Row | Sequence | soluble on expression in E. coli
1 | MSPNCETPTSSLSTSLRFVPSLACIAEEEPKVIGIRKITVPGSSKPFQVQIPLYDLNIYAPEPPKQPLPDSYQRLLAEMDQYIGGHQNSEMYKEMAKNLRHKVAVEQAENNRLSKSNFTNRDWYWYAEQTRAFVDEPVINSTSKTQESNISECLEETSSSAKSTVMKDEDLFDLSADF | not soluble
2 | MSPQKRVKNVQAQNRTSQGSSSFQTTLSAWKVKQDPSNSKNISKHGQNNPVGDYEHADDQAEEDALQMAVGYFEKGPIKASQNKDKTLEKHLKTVENVAWKNGLASEEIDILLNIALSGKFGNAVNTRILKCMIPATVISEDSVVKAVSWLCVGKCSGSTKVLFYRWLVAMFDFIDRKEQINLLYGFFFASLQDDALCPYVCHLLYLLTKKENVKPFRVRKLLDLQAKMGMQPHLQALLSLYKFFAPALISVSLPVRKKIYLQNSENLWKTALLAVKQRNRGPSPEPLKLMLGPANVRPLKRKWNSLSVIPVLNSSSYTKECGKKEMSLSDCLNRSGSFPLEQLQSFPQLLQNIHCLELPSQMGSVLNNSLLLHYINCVRDEPVLLRFHYWLSQTLQEECIWYKVNNYEHGKEFTNFLDTIIRAECFLQEGYYSCEAFLYKSLPLWDGLSCRSQFLQLVSWIPFSSFSEVKPLLFDHLAQLFFTSTIYFKCSVLQSLKELLQNWLLWLSMDIHMKPVTNSPLETTLGGSMNCVSKLIHYVGWLSTTAMRLESNNTFLLHFILDFYEKVCDIYINYDLPLVVLFPPGIFYSALLSLDTSILNQLCFIMHRYRKNLTAAKKNELVQKTKSEFNFSSKTYQEFNYYLTSMVGCLWTSKPFAKGIYIDPEILEKTGVAEYKNSLNVVHHPSFLSYAVSFLLQESPEERTVNVSSIRGKKWSWYLDYLFSQGLQGLKLFIRSSVHHSSIPRAEGINCNNQY | soluble
3 | MSPRNDSTRKHRKSRSIKDDQHYPPVSFVGVESVGIIECPGSNHLSLASIPTTEFKIPDELALWVRGRIDNVAPKHPCDRRGQQPLAKKEISMNSSRSNSSFPARSPAIMTLMGGVPEAEKEYNVGKDGLLKVSKMMEGGKRYEVSANDRFTVFQQSAGQTCLFTFKA | not soluble
4 | MSPVDFKDKVVIITGAGGGLGKYYSLEFAKLGAKVVVNDLGGALNGQGGNSKAADVVVDEIVKNGGVAVADYNNVLDGDKIVETAVKNFGTVHVIINNAGILRDASMKKMTEKDYKLVIDVHLNGAFAVTKAAWPYFQKQKYGRIVNTSSPAGLYGNFGQANYASAKSALLGFAETLAKEGAKYNIKANAIAPLARSRMTESIMPPPMLEKLGPEKVAPLVLYLSSAENELTGQFFEVAAGFYAQIRWERSGGVLFKPDQSFTAEVVAKRFSEILDYDDSRKPEYLKNQYPFMLNDYATLTNEARKLPANDASGAPTVSLKDKVVLITGAGAGLGKEYAKWFAKYGAKVVVNDFKDATKTVDEIKAAGGEAWPDQHDVAKDSEAIIKNVIDKYGTIDILVNNAGILRDRSFAKMSKQEWDSVQQVHLIGTFNLSRLAWPYFVEKQFGRIINITSTSGIYGNFGQANYSSSKAGILGLSKTMAIEGAKNNIKVNIVAPHAETAMTLSIMREQDKNLYHADQVAPLLVYLGTDDVPVTGETFEIGGGWIGNTRWQRAKGAVSHDEHTTVEFIKEHLNEITDFTTDTENPKSTTESSMAILSAVGGD | soluble
5 | MSQDLQKEVASRKTFAIISHPDAGKTTITEQLLLFGGVIRSAGTVKGKKSGKFATSDWMEIEKQRGISVTSSVMQFDYNGSRINILDTPGHSDFSEDTYRTLMAVDSAVMVIDAAKGIEAQTLKLFKVCRMRGIPIFTFINKMDRQGKMPLELLAELEEVLGIESYPMNWPIGMGKELAGLYDRYHRVIEQYRSEEDERFLPLGEDGDLKEAHAIQKSLYYDQALEEIMLLDEAGNDFSRERIIAGEQTPVFFGSALTNFGVETFLRTFVDFAPAPSSHESNEGVIEADNPKFSGFIFKIQANMNPAHRDRIAFIRICSGEFERGMNVTLTRTGKSLKLANSTQFMADDRETVNRAVAGDIIGLYDTGNYQIGDTITNGSKKLEFEKLPQFTPELFMRVYAKNVMKQKHFHKGVEQLVQEGAIQLFKTWRTEEYIIGAVGQLQFEVFEHRMRGEYNSEIRMEPIGKKIARWVKEEDADEKLSTARSMLVKDRFDQPLFLFENEFAINWFNDKNPDIELTSLL | not soluble
6 | MSQEHESSFQDPSRDELIQQVKELQIINANQRPEKILQEAFEKINLLVITIDQDGLIVYANEAFLEVIGWEKQRLLGENWKEFLEPGKDKNKEEHIYTLIKKQGFIDQLKRKFLSKEGDYRTIKFNVVIHHPIGNDVHLTTLIGEDIT | not soluble
7 | MSQFAVIIFGDQAKANEASRVLTELQADNSLVLFSQAVIAKDLAGTVSLMAPASGGAVGSAVSGLASRLIGVPVGGHGDLSDAGVLDSFCQEAADALKPGATAIVAEISEDRLGPLNTQMHALGGQVLRSCNSDSEGDEIAKQTARQIANIERLNAEYVRAPQDADKPGETPVDAVTLAPDERASNQSIVKANAEARSAKLSQACGLTKDALG | not soluble
8 | MSQIAGYFSSDSGVYPNPVKDVLNIKHEGDFGVRIFDFSGRLVLSMENTRMIGVKVLTAGAYVIKLMTQGSTPAERFIKL | not soluble
9 | MSQLFVRTGIHFSSSQQALEHIGAEMLARGVVHDSYPAALLEREATFPTGIALEKHAVAIPHCEAIHAKSPAIYLIRPDMPVSFQRADDDGEIDVSLIIALIVENPAAQLKLLRRLFSELQNPHTLEALLAASDDRLPVRFQQLILEPELSAVAS | not soluble
10 | MSQQSLISPSLQDILCKIQFNDTQFETTKKITRKRSNNFNPDRKKRNRITFDANQIDEMEKVFAENQYPDTMSREKLANKIQLHEERVQIWFQNRRAKYRREQKQTGHPYEPPSITKNPTGEKEKTQDCTTLTSASSPGPSNLSNDTLVSIEMAPKIGTKSVNLFPDQALSNTLNMIINANKNASENNYESEDQFNAESAKLLMLTLSNLFSLQNETTCE | not soluble
11 | MSQQYVYSMLRVSKVVPPQKTIIKDISLSFFPGAKIGLLGLNGAGKSTVLRIMAGVDKEFEGEAVPMGGIKIGYLPQEPELDPEKTVREEVESGLGEVAAAQKRLEEVYAEYANPDADFDALAEEQGRLEAIIAAGSSTGGGAEHELEIAADALRLPEW | not soluble
12 | MSQSISLKGSTRTVTEFFEYSINSILYQRGVYPAEDFVTVKKYDLTLLKTHDDELKDYIRKILLQVHRWLLGGKCNQLVLCIVDKDEGEVVERWSFNVQHISGNSNGQDDVVDLNTTQSQIRALIRQITSSVTFLPELTKEGGYTFTVLAYTDADAKVPLEWADSNSKEIPDGEVVQFKTFSTNDHKVGAQVSYKY | soluble
13 | MSQSLFSLAFGVGTQNRQEAWLEVFYALPLLKPSSEIVAAVAPILGYAAGNQALTFTSQQAYQLADALKGIDAAQSALLSRLAESQKPLVATLLAEDAAPSSTAEAYLKLHLLSHRLVKPHAVNLSGIFPLLPNVAWTNIGAVDLAELAELQLEARLKGKLLEVFSVDKFPKMTDYVVPAGVRIADTARVRLGAYIGEGTTVMHEGFVNFNAGTEGPGMIEGRVSAGVFVGKGSDLGGGCSTMGTLSGGGNIVISVGEGCLIGANAGIGIPLGDRNIVEAGLYITAGTKVALLDEQNALVKVVKARDLAGQPDLLFRRNSQNGAVECK | not soluble
14 | MSRAVRPYLVLATQRSGSTLLVESLRATGCAGEPQEFFQYLPSTGMAPQPREWFAGVDDDTILQLLDPLDPGTPDTATPVAWREHVRTSGRTPNGVWGGKLMWNQTALLQQRAAQLPDRSGDGLRAAIRDVIGNEPVFVHVHRPDVVSQAVSFWRAVQTQVWRGHPDPKRDSQAVYHAGAIAHIIRNLRDQENGWRAWFAEEGIDPIDIAYPVLWRNLTAIVASVLDAIGQDPKLAPAPMLERQANQRSDEWVDRYRAEAPRLGLPT | soluble
15 | MSRDSGNDSEVAVTHGEVQEITEENPEIGSMHITQETDISDAPETNTDSSRQRTESTTSVSSESWQNNDEMMSNLRRAQRLLDDGATPLQIIQQIFPDFNASRIATMSENAHFAILSDLLERAPVRQKLTNYNSLADAVELFKTKKHILVLTGAGVSVSCGIPDFRSKDGIYARLRSEFPDLPDPTAMFDIRYFRENPAPFYNFAREIFPGQFVPSVSHRFIKELETSGRLLRNYTQNIDTLEHQTGIKRVVECHGSFSKCTCTRCGQKYDGNEIREEVLAMRVAHCKRCEGVIKPNIVFFGEDLGREFHQHVTEDKHKVDLIVVIGSSLKVRPVALIPHCVDKNVPQILINRESLPHYNADIELLGNCDDIIRDICFSLGGSFTELITSYDSIMEQQGKTKSQKPSQNKRQLISQEDFLNICMKEKRNDDSSDEPTLKKPRMSVADDSMDSEKNNFQEIQKHKSEDDDDTRNSDDILKKIKHPRLLSITEMLHDNKCVAISAHQTVFPGAECSFDLETLKLVRDVHHETHCESSCGSSCSSNADSEANQLSRAQSLDDFVLSDEDRKNTIHLDLQRADSCDGDFQYELSETIDPETFSHLCEEMRI | not soluble
16 | MSRIHTLTMPKWGLSMTEGRVDAWLKEEGAHIEKGDEVLDVETDKISSSVEAPFSGVLRRKVAREDETLAVGALLGVVVEGEASDEEIDALVQRFQAEFVPADEDAGDSGPAPRKVELDGRLLRYFDRGEGDPALLLIHGFGGDLNNWLFNHEALAAERRVIALDLPGHGESGKALVRGDLDELSGSVLALLDHLDLEQVHLAGHSMGGAVALNCARLAPQRVLSLSLIGSAGLGEEINGDYLRGFVEAANRNALKPQLVQLFSDPALVTRQMLEDMLRYKRLEGVDAALRQLLDNLFADGRQRNDLRAVANEGRQPVLAIWGSDDAIIPARHAEGLPAQVEIIPGQAHMVQMEAAEQVNRLLLDFLRQH | not soluble
17 | MSRIIMLIPTGTSVGLTSVSLGVIRAMERKGVRLSVFKPIAQPRTGGDAPDQTTTIVRANSSTTTAAEPLKMSYVEGLLSSNQKDVLMEEIVANYHANTKDAEVVLVEGLVPTRKHQFAQSLNYEIAKTLNAEIVFVMSQGTDTPEQLKERIELTRNSFGGAKNTNITGVIVNKLNAPVDEQGRTRPDLSEIFDDSSKAKVNNVDPAKLQESSPLPVLGAVPWSFDLIATRAIDMARHLNATIINEGDINTRRVKSVTFCARSIPHMLEHFRAGSLLVTSADRPDVLVAACLAAMNGVEIGALLLTGGYEMDARISKLCERAFATGLPVFMVNTNTWQTSLSLQSFNLEVPVDDHERIEKVQEYVANYINADWIESLTATSERSRRLSPPAFRYQLTELARKAGKRIVLPEGDEPRTVKAAAICAERGIATCVLLGNPAEINRVAASQGVELGAGIEIVDPEVVRESYVGRLVELRKNKGMTETVAREQLEDNVVLGTLMLEQDEVDGLVSGAVHTTANTIRPPLQLIKTAPGSSLVSSVFFMLLPEQVYVYGDCAINPDPTAEQLAEIAIQSADSAAAFGIEPRVAMLSYSTGTSGAGSDVEKVREATRLAQEKRPDLMIDGPLQYDAAVMADVAKSKAPNSPVAGRATVFIFPDLNTGNTTYKAVQRSADLISIGPMLQGMRKPVNDLSRGALVDDIVYTIALTAIQSAQQQ | soluble
18 | MSRKKMGLLVMAMGTPYKEEDIERYYTHIRRGRKPEPEMLQDLKDRYEAIGGISPLAQITEQQAHNLEQHLNEIQDEITFKAYIGLKHIEPFIEDAVAEMHKDGITEAVSIVLAPHFSTFSVQSYNKRAKEEAEKLGGLTITSVESWYDEPKFVTYWVDRVKETYASMPEDERENAMLIVSAHSLPEKIKEFGDPYPDQLHESAKLIAEGAGVSEYAVGWQSEGNTPDPWLGPDVQDLTRDLFEQKGYQAFVYVPVGFVADHLEVLYDNDYECKVVTDDIGASYYRPEMPNAKPEFIDALATVVLKKLGR | soluble
19 | MSRLATLTWTSYRRGYTEIVTSAGLEVVFEPGDEWNSHDREYQQARLEVEGRGESGDGTVRTRTQALLRWQFKIKDGTVKRLPEADFTREVLVAVRLAIKDYRSQSSELRQKYFGPGFAMGG | not soluble
20 | MSRLRSTPIPGTRDSYTQVDFNLGFHVRHYDVSLDYVVAPNRLKAVVTLSMDTYQPLRSLTLDLSDALTVKSVTAQGTSAVAVRVQKFRHRNHKLRISFTEEIPVDQEFKITVTYSGNPRPIRSTWGLIGWEELSNGSLVASQPNGARSWLPCDDTPDEK | not soluble
